These results are taken from patent publication EP4574844A1 (Numab Therapeutics AG, dated 2025).

The target of experiment [1] is T1, recombinant cynomolgus PDL1 (cynomolgus monkey, UniProt G7PSE7 19-238).
T1 construct: also called cynom; PDL1
As to the kind of experiment: SPR.

The target of experiment [2] is T2, human PD-L1 on the cell surface (human, UniProt Q9NZQ7 19-290). The experiment in a line: cell-based or functional assay.
In experiment [3] the target is T3, recombinant human PDL1 (human, UniProt Q9NZQ7 19-238, limits assumed).
T3 construct: SPR antigen; also called CD274; B7-H1
As to the kind of experiment: SPR.

Experiment [4] concerns the target T4, recombinant human CD47 (human, UniProt Q08722 19-139, limits assumed). The experiment in a line: SPR, CD47 immobilised, scFv as analyte, 1:1 Langmuir.
Experiment [5] concerns the target T5, human CD47 on the cell surface (human, UniProt Q08722 19-323). As to the kind of experiment: cell-based or functional assay.
In experiment [6] the target is T2, human PD-L1 on the cell surface. As to the kind of experiment: cell-based or functional assay. The source holds these as a separate data set.
Experiment [7] addresses T4, recombinant human CD47. The experiment in a line: SPR, antigen immobilised, antibody as analyte.
Experiment [8] addresses T3, recombinant human PDL1. The experiment in a line: SPR, antigen immobilised, antibody as analyte.
Experiment [9] concerns the target T5, human CD47 on the cell surface. As to the kind of experiment: cell-based or functional assay. This is another data set of the same source.
The target in experiment [10] is T6, human LILRB2 on the cell surface (human, UniProt Q8N423 22-597). As to the kind of experiment: cell-based or functional assay.
In experiment [11] the target is T6, human LILRB2 on the cell surface. The experiment in a line: cell-based or functional assay. This is another data set of the same source.
For another experiment, the target named is T7, recombinant human LILRB2 (human, UniProt Q8N423 22-460, limits assumed).
T7 construct: also called ILT4
As to the kind of experiment: SPR, antibody captured by anti-framework IgG, antigen as analyte (without avidity).

T6 sequence (Q8N423 22-597): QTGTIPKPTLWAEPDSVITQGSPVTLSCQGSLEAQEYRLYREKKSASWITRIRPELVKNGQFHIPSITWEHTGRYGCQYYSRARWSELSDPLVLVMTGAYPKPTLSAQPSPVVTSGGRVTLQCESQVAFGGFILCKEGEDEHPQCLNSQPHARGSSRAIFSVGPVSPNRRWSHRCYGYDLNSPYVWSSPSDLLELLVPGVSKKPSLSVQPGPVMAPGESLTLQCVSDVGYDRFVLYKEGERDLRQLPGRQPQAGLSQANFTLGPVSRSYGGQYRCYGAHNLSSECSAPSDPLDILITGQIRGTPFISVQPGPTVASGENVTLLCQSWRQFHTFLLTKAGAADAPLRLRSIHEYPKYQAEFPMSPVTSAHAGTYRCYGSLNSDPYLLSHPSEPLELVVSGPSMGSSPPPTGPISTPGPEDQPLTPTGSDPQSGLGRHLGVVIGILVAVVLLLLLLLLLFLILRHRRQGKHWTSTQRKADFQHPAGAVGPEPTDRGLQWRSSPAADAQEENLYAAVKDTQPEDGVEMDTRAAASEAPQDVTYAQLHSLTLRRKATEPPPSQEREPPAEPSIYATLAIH
T7 sequence (Q8N423 22-460 limits assumed): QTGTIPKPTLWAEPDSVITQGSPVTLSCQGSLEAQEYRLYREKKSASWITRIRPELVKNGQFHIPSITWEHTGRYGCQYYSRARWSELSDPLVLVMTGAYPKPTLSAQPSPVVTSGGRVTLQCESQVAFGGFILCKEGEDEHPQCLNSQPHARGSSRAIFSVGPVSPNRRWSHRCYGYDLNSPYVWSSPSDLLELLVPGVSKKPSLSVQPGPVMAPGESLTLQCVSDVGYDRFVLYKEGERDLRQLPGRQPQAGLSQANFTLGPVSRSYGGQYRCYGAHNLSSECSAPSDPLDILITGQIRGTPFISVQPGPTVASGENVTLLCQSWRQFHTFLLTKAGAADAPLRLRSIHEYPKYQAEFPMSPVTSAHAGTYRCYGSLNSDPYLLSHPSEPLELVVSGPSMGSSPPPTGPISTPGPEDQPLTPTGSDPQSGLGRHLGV
T1 sequence (G7PSE7 entry or part of it): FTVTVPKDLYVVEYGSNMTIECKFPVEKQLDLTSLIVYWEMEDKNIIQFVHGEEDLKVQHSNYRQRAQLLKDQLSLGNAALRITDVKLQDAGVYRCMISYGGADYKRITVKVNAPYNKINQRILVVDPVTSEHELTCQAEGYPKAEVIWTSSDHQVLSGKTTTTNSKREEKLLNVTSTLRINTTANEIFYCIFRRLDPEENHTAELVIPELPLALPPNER

B1: PRO2230 (scFv)
scFv: DIQMTQSPASLSASVGDRVTITCQASQSIGTYLAWYQQKPGKPPKLLIYRAFILASGVPSRFSGSGSGTDFTLTISSLQPEDFATYYCQSNFYSDSTTIGPNAFGTGTKVTVLGGGGGSGGGGSGGGGSGGGGSEVQLVESGGGLVQPGGSLRLSCAASGFSFNSDYWIYWVRQAPGKGLEWIASIYGGSSGNTQYASWAQGRFTISRDNSKNTVYLQMNSLRAEDTAVYFCARGYVDYGGATDLWGQGTLVTVSS
notes: anti-PDL1 scFv; also called 37-20-B03-sc09.1
Take B1: in experiment [1], the Kd amounted to 0.012 nM, the koff was 8.4e-05 s⁻¹ and the association rate constant (kon) was 7e+06 M⁻¹ s⁻¹. Moreover, in experiment [2], the “PDL1/PD-1 EC50 [nM], NFAT reporter gene assay” value (from here on “PDL1/PD-1 EC50 [nM]”) came out at 0.93 nM and the “PDL1/PD-1 Max. inhibition (rel. to avelumab) [%]” value (“PDL1/PD-1 Max. inhibition … [%]” below) is 91.8%. Further, in the experiment with recombinant human PDL1 [3], the Kd came out at 0.015 nM, the koff came to 9.3e-05 s⁻¹ and the association rate constant (kon) is 6.3e+06 M⁻¹ s⁻¹.

B2: PRO3703 (scFv)
scFv: DVQMTQSPSSLSASVGDRVTITCQASQSISSWVSWYQQKPGKPPKLLIYRGGYLESGVPSRFSASGSGTDFTLTISSLQPEDFATYYCQSTDSSTYGGAFGCGTKVTVLGGGGGSGGGGSGGGGSGGGGSQQVVESGGGLVQPGGSLRLSCAVSGIDLNSYAMTWVRQAPGKCLEWIGYIGSASSTYYASWASGRFTISKDNSKNTVYLQMNSLRAEDSAVYFCARGSTYINIWGQGTLVKVSS
notes: anti-CD47 scFv; also called 70-26-B04-sc03
For the molecule B2, in the experiment with recombinant human CD47 [4], the Kd came out at 11.9 nM, the koff stood at 0.029 s⁻¹ and the kon worked out at 2.44e+06 M⁻¹ s⁻¹.

B3: PRO5056 (antibody, human IgG1, kappa)
chain: DVQMTQSPSSLSASVGDRVTITCQASQSISSWVSWYQQKPGKPPKLLIYRGGYLESGVPSRFSASGSGTDFTLTISSLQPEDFATYYCQSTDSSTYGGAFGCGTKVTVLGGGGGSGGGGSGGGGSGGGGSQQVVESGGGLVQPGGSLRLSCAVSGIDLNSYAMTWVRQAPGKCLEWIGYIGSASSTYYASWASGRFTISKDNSKNTVYLQMNSLRAEDSAVYFCARGSTYINIWGQGTLVKVSSEPKSSDKTHTCPPCPAPELLGGPSVFLFPPKPKDTLMISRTPEVTCVVVDVSHEDPEVKFNWYVDGVEVHNAKTKPREEQYNSTYRVVSVLTVLHQDWLNGKEYKCKVSNKALPAPIEKTISKAKGQPREPQVYTLPPCREEMTKNQVSLSCAVKGFYPSDIAVEWESNGQPENNYKTTPPVLDSDGSFFLVSKLTVDKSRWQQGNVFSCSVMHEALHNHYTQKSLSLSPGKGGGGSGGGGSDIQMTQSPSSLSASVGDRVTITCQSSESVYSNNQLSWYQQKPGQPPKLLIYDASDLASGVPSRFSGSGSGTDFTLTISSLQPEDFATYYCAGGFSSSSDTAFGCGTKLTVLGGGGGSGGGGSGGGGSGGGGSEVQLVESGGGLVQPGGSLRLSCAASGFSLSSNAMGWVRQAPGKCLEYIGIISVGGFTYYASWAKGRFTISRDNSKNTVYLQMNSLRAEDSATYFCARDRHGGDSSGAFYLWGQGTLVKVSS
heavy: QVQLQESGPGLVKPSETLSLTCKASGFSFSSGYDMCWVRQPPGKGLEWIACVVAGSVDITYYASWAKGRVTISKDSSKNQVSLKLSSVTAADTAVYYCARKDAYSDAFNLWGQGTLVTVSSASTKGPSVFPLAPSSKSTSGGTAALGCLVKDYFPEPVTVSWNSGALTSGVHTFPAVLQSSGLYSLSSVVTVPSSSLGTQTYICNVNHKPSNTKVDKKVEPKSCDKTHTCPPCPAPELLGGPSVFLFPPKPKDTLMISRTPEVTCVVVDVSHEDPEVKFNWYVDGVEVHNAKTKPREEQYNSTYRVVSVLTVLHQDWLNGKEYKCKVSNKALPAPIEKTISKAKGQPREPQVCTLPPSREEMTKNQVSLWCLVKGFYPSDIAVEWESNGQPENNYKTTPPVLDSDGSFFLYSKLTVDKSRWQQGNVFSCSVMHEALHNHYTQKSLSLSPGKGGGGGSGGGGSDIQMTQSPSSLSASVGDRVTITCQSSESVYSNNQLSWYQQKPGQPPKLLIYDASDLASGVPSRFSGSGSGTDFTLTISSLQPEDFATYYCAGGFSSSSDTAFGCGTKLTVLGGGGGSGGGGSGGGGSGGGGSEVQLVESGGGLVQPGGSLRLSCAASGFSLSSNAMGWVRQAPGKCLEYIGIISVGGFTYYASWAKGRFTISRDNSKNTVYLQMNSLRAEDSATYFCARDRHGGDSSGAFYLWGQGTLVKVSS
light: DIQMTQSPSSLSASVGDRVTITCQASQSINDYLAWYQQKPGKAPKLLIYKGGTLASGVPSRFSGSGSGTDFTLTISSLQPEDFATYYCQQGYIITDIDNVFGQGTKVEIKRTVAAPSVFIFPPSDEQLKSGTASVVCLLNNFYPREAKVQWKVDNALQSGNSQESVTEQDSKDSTYSLSSTLTLSKADYEKHKVYACEVTHQGLSSPVTKSFNRGEC
notes: anti-PDL1 x CD47 x (hSA dummy domain); also called PRO5055 with dummy domain for LILRB2-BD
Take B3: in experiment [5], the “CD47 driven EC50 [nM], phagocytosis of H292 cells” value (“CD47 driven EC50 … of H292 cells” for short) was 54.3 nM. Further, the “PD-L1 driven EC50 [nM], phagocytosis of H292 cells” value (shortened to “PD-L1 driven EC50 [nM]”) in [6] amounted to 0.13 nM. In the experiment with recombinant human CD47 [7], the Kd came out at 56.6 nM, the off-rate constant (koff) was found to be 0.0249 s⁻¹ and the kon was found to be 439000 M⁻¹ s⁻¹. For the same molecule, in the experiment with recombinant human PDL1 [8], the Kd was found to be 0.0105 nM, the koff was 2.13e-05 s⁻¹ and the kon was 2.02e+06 M⁻¹ s⁻¹. In experiment [9], the “CD47 driven EC50 [nM], phagocytosis of A375 cells” value was determined as 76.9 nM.

B4: PRO4688 (antibody, human IgG1, kappa)
chain: B3 chain
heavy: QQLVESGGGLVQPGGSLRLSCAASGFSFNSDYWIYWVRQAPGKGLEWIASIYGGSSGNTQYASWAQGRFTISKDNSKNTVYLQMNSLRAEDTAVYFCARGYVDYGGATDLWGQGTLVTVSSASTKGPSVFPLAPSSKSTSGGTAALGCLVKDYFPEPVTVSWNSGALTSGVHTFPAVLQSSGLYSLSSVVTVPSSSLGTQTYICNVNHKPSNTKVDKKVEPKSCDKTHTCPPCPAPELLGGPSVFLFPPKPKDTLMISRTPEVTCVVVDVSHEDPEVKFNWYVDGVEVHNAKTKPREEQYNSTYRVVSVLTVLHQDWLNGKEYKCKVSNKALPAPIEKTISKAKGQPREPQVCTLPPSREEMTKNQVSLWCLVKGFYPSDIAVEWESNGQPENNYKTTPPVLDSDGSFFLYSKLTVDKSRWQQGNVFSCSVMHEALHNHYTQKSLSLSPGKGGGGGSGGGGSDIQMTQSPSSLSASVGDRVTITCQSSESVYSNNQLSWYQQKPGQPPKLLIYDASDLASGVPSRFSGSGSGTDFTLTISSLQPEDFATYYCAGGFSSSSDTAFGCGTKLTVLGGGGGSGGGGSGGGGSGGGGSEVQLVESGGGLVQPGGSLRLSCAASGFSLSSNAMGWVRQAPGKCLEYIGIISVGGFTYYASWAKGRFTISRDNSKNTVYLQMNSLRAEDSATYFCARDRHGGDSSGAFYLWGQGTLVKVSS
light: DIQMTQSPSSLSASVGDRVTITCQASQSIGTYLAWYQQKPGKPPKLLIYRGGILASGVPSRFSGSGSGTDFTLTISSLQPEDFATYYCQSNFYSDSTTIGPNAFGQGTKVEIKRTVAAPSVFIFPPSDEQLKSGTASVVCLLNNFYPREAKVQWKVDNALQSGNSQESVTEQDSKDSTYSLSSTLTLSKADYEKHKVYACEVTHQGLSSPVTKSFNRGEC
Take B4: the “CD47 driven EC50 … of H292 cells” value in experiment [5] stood at 13.5 nM. Besides, in [6], the “PD-L1 driven EC50 [nM]” value was determined as 0.08 nM.

B5: PRO3891 (scFv)
scFv: DIQMTQSPSSLSASVGDRVTITCQASQSINDYLAWYQQKPGKAPKLLIYKGGTLASGVPSRFSGSGSGTDFTLTISSLQPEDFATYYCQQGYIITDIDNVFGTGTKVTVLGGGGGSGGGGSGGGGSGGGGSQVQLQESGPGLVKPSETLSLTCKASGFSFSSGYDMCWVRQPPGKGLEWIACVVAGSVDITYYASWAKGRVTISKDSSKNQVSLKLSSVTAADSAVYYCARKDAYSDAFNLWGQGTLVKVSS
notes: anti-PDL1 scFv
B5: in experiment [1], the Kd turned out to be 0.0034 nM, the koff is 2.9e-05 s⁻¹ and the association rate constant (kon) came to 5.9e+06 M⁻¹ s⁻¹. In experiment [2], the “PDL1/PD-1 EC50 [nM]” value worked out at 1.36 nM and the “PDL1/PD-1 Max. inhibition … [%]” value came out at 94.6%. Moreover, in the experiment with recombinant human PDL1 [3], the Kd was 0.0041 nM, the koff came to 3.9e-05 s⁻¹ and the kon turned out to be 6e+06 M⁻¹ s⁻¹.

B6: PRO4687 (antibody, human IgG1, kappa)
chain: DVQMTQSPSSLSASVGDRVTITCQASQSISSWVSWYQQKPGKPPKLLIYRGGYLESGVPSRFSASGSGTDFTLTISSLQPEDFATYYCQSTDSSTYGGAFGCGTKVTVLGGGGGSGGGGSGGGGSGGGGSQQVVESGGGLVQPGGSLRLSCAVSGIDLNSYAMTWVRQAPGKCLEWIGYIGSASSTYYASWASGRFTISKDNSKNTVYLQMNSLRAEDSAVYFCARGSTYINIWGQGTLVKVSSEPKSSDKTHTCPPCPAPELLGGPSVFLFPPKPKDTLMISRTPEVTCVVVDVSHEDPEVKFNWYVDGVEVHNAKTKPREEQYNSTYRVVSVLTVLHQDWLNGKEYKCKVSNKALPAPIEKTISKAKGQPREPQVYTLPPCREEMTKNQVSLSCAVKGFYPSDIAVEWESNGQPENNYKTTPPVLDSDGSFFLVSKLTVDKSRWQQGNVFSCSVMHEALHNHYTQKSLSLSPGKGGGGSGGGGSDVQMTQSPSSLSASVGDRVTITCQASQSIGSNLAWYQQKPGKPPKLLIYKGGTLESGVPSRFSGSGSGTDFTLTISSLQPEDFATYYCQSTAGSSRSGNYGYVFGCGTKVTVLGGGGGSGGGGSGGGGSGGGGSQQLVESGGGLVQPGGSLRLSCAASGFSFTNNYYMCWVRQAPGKCLEWIACMLVGAWGNTYYASWANGRFTISKDNSKNTVYLQMNSLRAEDSAVYFCARARDYTWTLGGDPETSGFNLWGQGTLVKVSS
heavy: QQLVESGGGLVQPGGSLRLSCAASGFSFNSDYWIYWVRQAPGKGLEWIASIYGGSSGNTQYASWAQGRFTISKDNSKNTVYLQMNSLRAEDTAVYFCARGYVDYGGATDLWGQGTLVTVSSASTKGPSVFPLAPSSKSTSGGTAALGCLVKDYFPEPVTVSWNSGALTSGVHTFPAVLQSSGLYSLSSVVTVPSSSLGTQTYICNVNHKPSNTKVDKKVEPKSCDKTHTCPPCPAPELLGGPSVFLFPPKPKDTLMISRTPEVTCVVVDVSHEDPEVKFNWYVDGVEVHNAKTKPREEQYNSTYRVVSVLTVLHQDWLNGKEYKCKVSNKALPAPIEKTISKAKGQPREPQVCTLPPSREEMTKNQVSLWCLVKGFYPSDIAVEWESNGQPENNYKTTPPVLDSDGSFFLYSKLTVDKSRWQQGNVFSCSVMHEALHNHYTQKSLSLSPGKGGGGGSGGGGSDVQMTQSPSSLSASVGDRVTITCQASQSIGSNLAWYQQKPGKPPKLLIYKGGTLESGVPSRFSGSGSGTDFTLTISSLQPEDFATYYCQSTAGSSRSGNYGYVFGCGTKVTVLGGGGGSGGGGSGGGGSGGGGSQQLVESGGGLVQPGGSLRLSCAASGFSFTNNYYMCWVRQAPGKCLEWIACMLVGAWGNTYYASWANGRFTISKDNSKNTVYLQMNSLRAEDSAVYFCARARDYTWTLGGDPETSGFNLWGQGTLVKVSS
light: B4 light
notes: trispecific anti-PDL1 x CD47 x LILRB2; PDL1-BD (37-20-B03-sc18) as Fab
For the molecule B6, in [10], the “CD86 EC50 [nM], re-polarization of M2 macrophages” value turned out to be 0.078 nM; the “CD163 EC50 [nM], re-polarization of M2 macrophages” value came out at 0.07 nM; the “CD206 EC50 [nM], re-polarization of M2 macrophages” value turned out to be 0.124 nM. In addition, the “CD47 driven EC50 … of H292 cells” value in experiment [5] came to 8.62 nM. In experiment [6], the “PD-L1 driven EC50 [nM]” value came out at 0.043 nM. In addition, in [11], the “IL-1β EC50 [nM], LPS-driven cytokine secretion” value turned out to be 0.205 nM; the “IL-6 EC50 [nM], LPS-driven cytokine secretion” value turned out to be 0.097 nM; the “TNF-α EC50 [nM], LPS-driven cytokine secretion” value was found to be 0.175 nM. For the same molecule, in the experiment with recombinant human CD47 [7], the Kd worked out at 25.2 nM, the koff turned out to be 0.0204 s⁻¹ and the kon amounted to 811000 M⁻¹ s⁻¹. In addition, in the experiment with recombinant human PDL1 [8], the Kd came to 0.0885 nM, the koff stood at 0.000116 s⁻¹ and the kon worked out at 1.31e+06 M⁻¹ s⁻¹. Moreover, in the experiment with recombinant human LILRB2, the Kd is 0.36 nM, the koff amounted to 9.3e-05 s⁻¹ and the kon was 260000 M⁻¹ s⁻¹.

B7: PRO4245 (scFv)
scFv: DIQMTQSPSSLSASVGDRVTITCQASQSIGTYLAWYQQKPGKPPKLLIYRGGILASGVPSRFSGSGSGTDFTLTISSLQPEDFATYYCQSNFYSDSTTIGPNAFGTGTKVTVLGGGGGSGGGGSGGGGSGGGGSQQLVESGGGLVQPGGSLRLSCAASGFSFNSDYWIYWVRQAPGKGLEWIASIYGGSSGNTQYASWAQGRFTISKDNSKNTVYLQMNSLRAEDSAVYFCARGYVDYGGATDLWGQGTLVKVSS
notes: anti-PDL1 scFv
Consider B7, for which, in [1], the Kd worked out at 0.032 nM, the off-rate constant (koff) is 0.00014 s⁻¹ and the kon amounted to 4.6e+06 M⁻¹ s⁻¹. Also, in [2], the “PDL1/PD-1 EC50 [nM]” value amounted to 1.81 nM and the “PDL1/PD-1 Max. inhibition … [%]” value stood at 106%. Further, in the experiment with recombinant human PDL1 [3], the Kd came to 0.036 nM, the koff was determined as 0.00014 s⁻¹ and the kon was found to be 4e+06 M⁻¹ s⁻¹.
